Measured values published in US20240270826A1 (NATIONAL RESEARCH COUNCIL OF CANADA, published 2024).

B1: NRCoV2-12 VHH-Fc (Fc fusion)
chain: EVQLQQSGGGLVQAGGSLRLSCAASGRTFRNYVMGWFRQAPQAPGKDHEFVAAISWGGTEIYYADSVKGRFTISRDNAKNTVYLQMNSLKPEDTAVYYCAADRGLSYYYTRTTEYNYWGQGTQVTVSS
notes: bivalent VHH-Fc
B2: NRCoV2-18 VHH-Fc (Fc fusion)
chain: EVQLVESGGGLVQAGGSLRLSCVASGITISGYNMAWWRQTRGKQTERVAFINSGGSTTYSDSVKGRFTISRDNGKNTAYLQMNSLNAEDTADYFCSLHTSHDYWGQGTQVTVSS
notes: bivalent VHH-Fc
B3: NRCoV2-17 VHH-Fc (Fc fusion)
chain: EVQLQQSGGGLVQTGGSLRLSCAAAGSPFSQLAMSWYRQISGKERAWVASISPTGNRSYSKIAKGRFTISRDNAKNTVTLQMTSLKPEDTAAYICQAANVNGGDYWGQGTQVTVSS
notes: bivalent VHH-Fc
B4: NRCoV2-20 VHH-Fc (Fc fusion)
chain: EVQLQQSGGGLVQPGGSLRLSCAASGRTFSNYVVGWFRQAPQAPGKDHEFVAVISGSDTETYYADSVKGRFTISRDNAKNTVYLQMNSLKPEDTAVYYCAADRGMSYYYTRATEYYYWGQGTQVTVSS
notes: bivalent VHH-Fc
B5: NRCoV2-SR02 VHH-Fc (Fc fusion)
chain: EVQLVDSGGGLVQAGGSLRLSCTASEFTLNYYSIGWFRQSPGKEREGVSCIRYSGGGIDYADSVKGRFTISRDNAKNTVYLTMNSLKPEDTAVYYCAADRLYSRACPTAGGRNYWGQGTQVTVSS
notes: bivalent VHH-Fc
B6: NRCoV2-02 VHH-Fc (Fc fusion)
chain: EVQLVESGGGLVQAGGSLRLSCAASGFTFSNYAMNWVRQAPGKGLEWVSGISGRGDDTRYADSVKGRFTISRDNAKNTLFLQMRSLRPEDTGVYRCTKGPDLYYFGSGYSDRGQGTQVTVSS
notes: bivalent VHH-Fc
B7: NRCoV2-10 VHH-Fc (Fc fusion)
chain: QLQLQESGGGLVQPGGSLTLSCAASGNTFSRSNMHWYRQAPGAQREWVAAISSRGISTYAYSAKGRFTISRDNAKNTVSLQMNSLKPEDTAVYYCYAADDLGDYWGQGTQVTVSS
notes: bivalent VHH-Fc
B8: NRCoV2-07 VHH-Fc (Fc fusion)
chain: QVQLVQSGGGLVQPGGSLRLSCAASGVTLDYYAIGWFRQAPGKEREAVSCISSNGRRNHYVASVRGRFTISRDNAKSTVYLQMNSLKPEDTAVYYCAAVQDVHGDNYYCTSPNEYNVWGQGTQVTVSS
notes: bivalent VHH-Fc
B9: NRCoV2-15 VHH-Fc (Fc fusion)
chain: EVQLVSSGGGLVEAGGSLRLSCIASGSTSGRNTMGWFRQAPGKQREWVAIVSTSGATNYAGSVKGRFTLSRDNAKNAVYLQMNNLKPEDTAVYYCYAAYGGGGDYWGQGTQVTVSS
notes: bivalent VHH-Fc
B10: NRCoV2-11 VHH-Fc (Fc fusion)
chain: EVQLVSSGGGLVQPGGSLRLSCAASGSSLDSYSVSWFRQAPGKEREWISFISRYYSSTYYTDSVKGRFTTSRDGDQKTVHLQMNSLKPEDTAVYYCAARSRDFSSPFSATDTYTSWGQGTQVTVSS
notes: bivalent VHH-Fc
B11: NRCoV2-14 VHH-Fc (Fc fusion)
chain: EVQLVSSGGGLVQAGGSLRLSCEASGTTFSHYAVGWYRQAPGKQREWVASISVFGSTTYGGSVAGRFTISRDNDKNTVDLQMNSLKPEDTAVYYCHAVNADIGGDYWGQGTQVTVSS
notes: bivalent VHH-Fc
B12: NRCoV2-04 VHH-Fc (Fc fusion)
chain: AVQLVDSGGGLVQPGGSLRLSCAASGSPFSNVVMAWYRQAPGKQRERVAFISGGGIADYIMSVKGRFTISRDNAKNTVYLQMNSLKPEDTAVYYCWSSYESTWGQGTQVTVSS
notes: bivalent VHH-Fc
B13: NRCoV2-MRed05 VHH-Fc (Fc fusion)
chain: EVQLVESGGGLVQPGGSLRLSCAASGFTLDYYAIGWFRQAPGKEREGVSCISSSDGSTLYADSVKGRFTISRDNAKNTVYLQMNSLKPEDTAVYYCATGPQAYYSGSYYFQCPQAGMDYWGKGTQVTVSS
notes: bivalent VHH-Fc
B14: NRCoV2-MRed04 VHH-Fc (Fc fusion)
chain: EVQLVESGGGLVQPGRSLRLSCAASGNSFSISTMGWFRQAPGKERELVASIWSDTTTSYADSVKGRFTISTDNTRTKVYLQMSSLNPEDTAVYYCAADRGFVVRGQYDYWGQGTQVTVSS
notes: bivalent VHH-Fc
B15: NRCoV2-1d VHH-Fc (Fc fusion)
chain: EVQLVESGGGSVQPGGSLRLSCAASGSTLDYYAIGWFRQAPGKEREWVSSVSSSDGNTLYADSVKGRFTISRDNAKNTVYLQMNSLKAEDTAVYVCAADYSMRPFAVGRWHRDYEYWGQGTQVTVSS
notes: bivalent VHH-Fc
B16: NRCoV2-SR13 VHH-Fc (Fc fusion)
chain: EVQLVESGGGLVTTGGSLRLSCATSGSRFGSKHMAWYRQAPGKQRDLVAAISSGGSTHYGSSVKGRFTISRDNAKSTVYLQMNSLNPEDTAVFYCNMGGWDYRSNTYIPGSRSDYWGQGTQVTVSS
notes: bivalent VHH-Fc
B17: NRCoV2-SR01 VHH-Fc (Fc fusion)
chain: EVQLVQSGGGSVQAGGSLRLSCVASGFTFDNYAIGWFRQAPGKEREGVSCISGNGGVTIYADSVKGRFTISRDNAKNLVYLQMNSLKPEDTAVYYCAATGIRSTWSVYGCSRLAGPYDYWGQGTQVTVSS
notes: bivalent VHH-Fc
B18: NRCoV2-05 VHH-Fc (Fc fusion)
chain: EVKLVQSGGGLVQPGGSLRLSCAASGFIFSNYAMNWVRQAPGKGLEWVSGINSGGGDTRYADSVKGRFTVSRDNAKNTLYLQMNSLKPEDTGVYYCSKGPVSSYYGSGYDYRGQGTQVTVSS
notes: bivalent VHH-Fc
B19: NRCoV2-17 VHH-Fc (Fc fusion)
chain: B3 chain
notes: bivalent VHH-Fc
B20: NRCoV2-20 VHH-Fc (Fc fusion)
chain: B4 chain
notes: bivalent VHH-Fc
B21: NRCoV2-12 VHH-Fc (Fc fusion)
chain: B1 chain
notes: bivalent VHH-Fc
B22: NRCoV2-10 VHH-Fc (Fc fusion)
chain: B7 chain
notes: bivalent VHH-Fc
B23: NRCoV2-15 VHH-Fc (Fc fusion)
chain: B9 chain
notes: bivalent VHH-Fc
B24: NRCoV2-11 VHH-Fc (Fc fusion)
chain: B10 chain
notes: bivalent VHH-Fc
B25: NRCoV2-14 VHH-Fc (Fc fusion)
chain: B11 chain
notes: bivalent VHH-Fc
B26: NRCoV2-04 VHH-Fc (Fc fusion)
chain: B12 chain
notes: bivalent VHH-Fc
B27: NRCoV2-SR01 VHH-Fc (Fc fusion)
chain: B17 chain
notes: bivalent VHH-Fc

What follows are binders tested against SARS-CoV-2 spike protein S on live virus, Alpha variant (SARS-CoV-2 (Alpha variant), UniProt P0DTC2 14-1273) (assay: cell-based or functional assay).

| Binder | LVNA IC50 |
| --- | --- |
| B1 | 1.35 nM |
| B2 | 2.82 nM |
| B3 | 0.61 nM |
| B4 | 1.94 nM |
| B5 | 9.05 nM |
| B6 | 0.09 nM |
| B7 | 0.47 nM |
| B8 | 0.42 nM |
| B9 | 0.16 nM |
| B10 | 2.3 nM |
| B11 | 0.88 nM |
| B12 | 2.3 nM |
| B13 | 0.13 nM |
| B14 | 4.5 nM |
| B15 | 0.37 nM |
| B16 | ~100 nM |
| B17 | 3.77 nM |
| B18 | 0.03 nM |

The binders below were run against Human SARS-CoV-2 Omicron (B.1.1.529) S (SARS-CoV-2 (Omicron variant)) (assay: flow cytometry SVNA: VHH-Fc inhibits S binding to ACE2 on Vero E6 cells).

| Binder | IC50 |
| --- | --- |
| B19 | 3.4 nM |
| B20 | 13.1 nM |
| B21 | 17.2 nM |
| B22 | 4.3 nM |
| B23 | 3 nM |
| B24 | 8.8 nM |
| B25 | 5.2 nM |
| B26 | 18.4 nM |
| B27 | 4.4 nM |
